Data on one molecule can be found in US20160002326A1 (AbbVie / Abbott, published 2016).

Changes are numbered by the printed parent chain. Names may count otherwise.

For orientation: Kd means the equilibrium constant for the complex coming apart. As usually defined, the koff is the first-order rate constant of dissociation.

Experiment [1] deals with T1, Fcγ RIIIa, variant 158F (UniProt P08637 17-208).
T1 construct: also called FcγRIIIa 158F
Briefly: Biacore. (Surface plasmon resonance follows binding to a sensor surface in real time, without labels.)

Experiment [2] addresses 4-1BB ligand (UniProt P41273 71-254, limits assumed). Kind of experiment: direct ELISA. A general note: ELISA stands for enzyme-linked immunosorbent assay.
For experiment [3], the target named is T2, OX40 ligand (UniProt P23510 51-183).
T2 sequence (looked up): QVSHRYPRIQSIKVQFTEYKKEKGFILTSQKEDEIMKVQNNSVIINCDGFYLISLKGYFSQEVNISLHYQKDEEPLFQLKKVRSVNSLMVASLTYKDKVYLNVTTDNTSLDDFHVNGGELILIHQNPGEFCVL
Briefly: direct ELISA.

The target of experiment [4] is T3, CD40 ligand (UniProt P29965 113-261, limits assumed).
T3 sequence (looked up): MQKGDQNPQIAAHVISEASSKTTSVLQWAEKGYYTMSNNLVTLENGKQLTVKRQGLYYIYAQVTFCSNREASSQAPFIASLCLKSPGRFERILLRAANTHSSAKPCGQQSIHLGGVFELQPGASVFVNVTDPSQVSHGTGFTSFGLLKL
Briefly: direct ELISA.

Experiment [5] addresses T4, mouse TNF (mouse, UniProt P06804 80-235).
T4 construct: also called murine TNF; rodent TNF (mouse)
T4 sequence (looked up): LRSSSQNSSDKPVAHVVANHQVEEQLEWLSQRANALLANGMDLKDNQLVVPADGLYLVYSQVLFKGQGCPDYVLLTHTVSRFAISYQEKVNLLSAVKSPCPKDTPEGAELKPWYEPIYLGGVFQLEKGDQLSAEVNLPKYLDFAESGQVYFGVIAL
Kind of experiment: Biacore SPR.

In experiment [6] the target is T5, rat TNF (rat, UniProt P16599 80-235).
T5 construct: also called rodent TNF (rat); rat rTNF
T5 sequence (looked up): T4 sequence (looked up) with V22A, V58I, N91S, V96I, I117M, Q130L, F143I, A144T
Briefly: Biacore SPR.

Experiment [7] concerns the target T6, rabbit TNF (rabbit, UniProt P04924 80-235, limits assumed).
T6 construct: also called rabbit rTNF
T6 sequence (looked up): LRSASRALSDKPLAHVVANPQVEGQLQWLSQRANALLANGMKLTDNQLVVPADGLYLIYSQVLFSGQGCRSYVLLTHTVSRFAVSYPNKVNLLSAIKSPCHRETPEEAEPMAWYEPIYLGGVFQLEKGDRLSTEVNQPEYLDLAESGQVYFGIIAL
Briefly: Biacore SPR.

Experiment [8] has as its target T4, mouse TNF. Kind of experiment: cell-based or functional assay.
The target in experiment [9] is T5, rat TNF. Briefly: cell-based or functional assay.
The target in experiment [10] is T6, rabbit TNF. Briefly: cell-based or functional assay.
Experiment [11] concerns the target T7, human TNF-α (human, UniProt P01375 77-233). Kind of experiment: cell-based or functional assay.
The target in experiment [12] is T8, human IL-17A/A homodimer (human, UniProt Q16552 24-155).
T8 sequence: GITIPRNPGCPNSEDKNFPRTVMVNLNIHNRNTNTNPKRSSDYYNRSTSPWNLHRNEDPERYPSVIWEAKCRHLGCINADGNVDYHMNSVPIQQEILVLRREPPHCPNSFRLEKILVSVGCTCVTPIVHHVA
Kind of experiment: cell-based or functional assay.

For experiment [13], the target named is T9, monkey (Rhesus/Cynomolgus) TNF (monkey (Rhesus/Cynomolgus), UniProt P48094 77-233). Kind of experiment: cell-based or functional assay.
Experiment [14] concerns the target T10, monkey (Rhesus/Cynomolgus) IL-17 (monkey (Rhesus/Cynomolgus), UniProt F6T3G5 24-155).
T10 sequence: T8 sequence with T3A, N17T, I77V, P104R
Briefly: cell-based or functional assay.

For experiment [15], the target named is T11, mouse IL-17 (mouse, UniProt Q62386 26-158, limits assumed).
T11 sequence (looked up): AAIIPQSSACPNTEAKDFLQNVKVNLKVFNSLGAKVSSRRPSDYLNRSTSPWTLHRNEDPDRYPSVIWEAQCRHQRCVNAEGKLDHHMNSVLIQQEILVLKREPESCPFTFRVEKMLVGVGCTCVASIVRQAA
Kind of experiment: cell-based or functional assay.

In experiment [16] the target is T12, rat IL-17 (rat, UniProt Q61453 18-150, limits assumed).
T12 sequence (looked up): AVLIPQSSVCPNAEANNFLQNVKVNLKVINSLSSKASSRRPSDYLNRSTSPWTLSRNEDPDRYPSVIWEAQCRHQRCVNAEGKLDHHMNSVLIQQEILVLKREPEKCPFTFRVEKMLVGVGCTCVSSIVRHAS
Kind of experiment: cell-based or functional assay.

Experiment [17] concerns the target T9, monkey (Rhesus/Cynomolgus) TNF. Briefly: Biacore SPR, 3 experiments; unit not printed in Table 10.
The target in experiment [18] is T10, monkey (Rhesus/Cynomolgus) IL-17. The experiment is described as above.
Experiment [19] has as its target T11, mouse IL-17. Described as above.
The target of experiment [20] is T12, rat IL-17. The experiment is described as above.
The target of experiment [21] is T7, human TNF-α. Briefly: Biacore SPR, recombinant antigen, mean of 3 experiments; exponent as printed.

T7 sequence (P01375 77-233 limits assumed): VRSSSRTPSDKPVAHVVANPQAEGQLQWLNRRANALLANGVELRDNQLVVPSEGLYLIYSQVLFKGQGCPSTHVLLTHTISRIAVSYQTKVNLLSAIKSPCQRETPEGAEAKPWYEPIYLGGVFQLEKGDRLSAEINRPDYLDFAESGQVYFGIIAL
T9 sequence (P48094 77-233 limits assumed): as the sequence (P01375 77-233 limits assumed) above, with R44T, T72N, R138L counted along it
4-1BB ligand, sequence (P41273 71-254 limits assumed): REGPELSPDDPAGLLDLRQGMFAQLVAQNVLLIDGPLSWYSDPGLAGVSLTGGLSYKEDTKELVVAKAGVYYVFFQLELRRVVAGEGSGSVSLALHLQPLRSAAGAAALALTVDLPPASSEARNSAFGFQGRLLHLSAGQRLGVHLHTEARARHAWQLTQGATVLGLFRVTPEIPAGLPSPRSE
T1 sequence (P08637 17-208 limits assumed, change not shown): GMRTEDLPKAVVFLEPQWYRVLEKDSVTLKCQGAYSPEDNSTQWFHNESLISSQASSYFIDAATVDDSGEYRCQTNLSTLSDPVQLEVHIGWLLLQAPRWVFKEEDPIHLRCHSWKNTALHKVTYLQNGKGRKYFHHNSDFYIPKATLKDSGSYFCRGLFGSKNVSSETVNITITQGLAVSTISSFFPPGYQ

B1: ABBV-257 anti-human TNF and IL-17 DVD-Ig binding protein (bispecific antibody, human IgG1, kappa, L234A L235A)
heavy: EVQLVQSGAEVKKPGASVKVSCKASGYTFANYGIIWVRQAPGQGLEWMGWINTYTGKPTYAQKFQGRVTMTTDTSTSTAYMELSSLRSEDTAVYYCARKLFTTMDVTDNAMDYWGQGTTVTVSSGGGGSGGGGSEVQLVQSGAEVKKPGSSVKVSCKASGYTFTDYEIHWVRQAPGQGLEWMGVNDPESGGTFYNQKFDGRVTLTADESTSTAYMELSSLRSEDTAVYYCTRYSKWDSFDGMDYWGQGTTVTVSSASTKGPSVFPLAPSSKSTSGGTAALGCLVKDYFPEPVTVSWNSGALTSGVHTFPAVLQSSGLYSLSSVVTVPSSSLGTQTYICNVNHKPSNTKVDKKVEPKSCDKTHTCPPCPAPEAAGGPSVFLFPPKPKDQLMISRTPEVTCVVVDVSHEDPEVKFNWYVDGVEVHNAKTKPREEQYNSTYRVVSVLTVLHQDWLNGKEYKCKVSNKALPAPIEKTISKAKGQPREPQVYTLPPSREEMTKNQVSLTCLVKGFYPSDIAVEWESNGQPENNYKTTPPVLDSDGSFFLYSKLTVDKSRWQQGNVFSCSVLHEALHNHYTQKSLSLSPGK
light: DIQMTQSPSSLSASVGDRVTITCRASQDISQYLNWYQQKPGKAPKLLIYYTSRLQSGVPSRFSGSGSGTDFTLTISSLQPEDFATYFCQQGNTWPPTFGQGTKLEIKRGGSGGGGSGDIQMTQSPSSLSASVGDRVTITCRASSGIISYIDWFQQKPGKAPKRLIYATFDLASGVPSRFSGSGSGTDYTLTISSLQPEDFATYYCRQVGSYPETFGQGTKLEIKRTVAAPSVFIFPPSDEQLKSGTASVVCLLNNFYPREAKVQWKVDNALQSGNSQESVTEQDSKDSTYSLSSTLTLSKADYEKHKVYACEVTHQGLSSPVTKSFNRGEC
modifications: N-linked glycans on the heavy chain at the asparagine commonly modified on IgG1 antibodies (fucosylated biantennary oligosaccharides with 0, 1 or 2 galactose residues)
notes: It says the constant region carries L234A, L235A and also T250Q and M428L; also called Anti-IL-17/TNF DVD-Ig Protein
Turning to B1, the binding result in [1] was “no binding”; in experiment [2], “no binding”; in experiment [3], “no binding”; in experiment [4], “no binding”; in [5], “no binding (tested: at concentrations up to 500 nM of rTNF)”; in [6], “no binding (tested: at concentrations up to 500 nM of rTNF)”. Further, in experiment [7], the binding result was “no binding (tested: at concentrations up to 500 nM of rTNF)”. Further, the “IC50, in vitro neutralization assay (In-Vitro Potency)” value in experiment [8] is more than 1 µM; in experiment [9], more than 1 µM; in experiment [10], more than 1 µM; in experiment [11], 25 pM; in experiment [12], 26 pM; in experiment [13] it was 25 pM. Besides, the “IC50, in vitro neutralization assay (In-Vitro Potency)” value in experiment [14] is 32 pM; in experiment [15] it was 239 pM; in [16], 135 pM. Also, the dissociation constant (Kd) in [17] is 0.024 nM; in experiment [18], 0.011 nM; in experiment [19] it was 0.072 nM; in [20] it was less than 0.035 nM. Moreover, in experiment [21], the koff amounted to 1.6e-05 s⁻¹.
